Data: patent US20160031998A1 (CSL, published 2016)
Residue numbers refer to the chain shown, from its start.

How the values were obtained:
[1] = molecular target: T1, human G-CSFR expressed on cells (Homo sapiens, UniProt Q99062 25-836); experiment: cell-based or functional assay
T1 sequence: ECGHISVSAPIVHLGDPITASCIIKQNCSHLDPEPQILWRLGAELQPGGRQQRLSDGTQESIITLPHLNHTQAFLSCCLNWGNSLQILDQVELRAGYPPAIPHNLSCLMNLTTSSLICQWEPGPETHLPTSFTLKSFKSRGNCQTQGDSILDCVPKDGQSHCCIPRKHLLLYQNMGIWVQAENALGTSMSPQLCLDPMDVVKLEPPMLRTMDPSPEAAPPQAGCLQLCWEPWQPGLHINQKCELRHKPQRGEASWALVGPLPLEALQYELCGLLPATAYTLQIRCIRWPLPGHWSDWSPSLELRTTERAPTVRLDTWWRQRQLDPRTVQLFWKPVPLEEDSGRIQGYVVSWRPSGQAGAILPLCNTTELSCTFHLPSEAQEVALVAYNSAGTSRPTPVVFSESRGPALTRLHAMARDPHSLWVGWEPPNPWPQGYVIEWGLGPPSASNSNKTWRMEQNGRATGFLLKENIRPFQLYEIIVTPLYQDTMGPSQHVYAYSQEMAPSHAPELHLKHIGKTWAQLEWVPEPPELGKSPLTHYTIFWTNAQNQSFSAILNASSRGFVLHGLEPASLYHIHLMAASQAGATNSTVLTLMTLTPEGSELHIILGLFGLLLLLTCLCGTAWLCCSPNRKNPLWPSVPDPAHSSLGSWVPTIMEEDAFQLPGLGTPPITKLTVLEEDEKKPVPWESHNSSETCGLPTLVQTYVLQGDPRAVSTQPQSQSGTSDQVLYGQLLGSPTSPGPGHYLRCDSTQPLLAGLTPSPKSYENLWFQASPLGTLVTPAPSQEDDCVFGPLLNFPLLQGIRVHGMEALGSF

[2] = molecular target: T2, cynoG-CSFR-Fc: corresponding segment of cynomolgus monkey G-CSFR with an Fc sequence attached to its … (Macaca fascicularis, UniProt Q99062 25-335 (human entry)); experiment: SPR (Biacore 2000), receptor immobilised on CM5 chip, IgG4 in solution
T2 construct: the Fc is not specified; also called cynomolgus monkey G-CSFR-Fc
T2 chain: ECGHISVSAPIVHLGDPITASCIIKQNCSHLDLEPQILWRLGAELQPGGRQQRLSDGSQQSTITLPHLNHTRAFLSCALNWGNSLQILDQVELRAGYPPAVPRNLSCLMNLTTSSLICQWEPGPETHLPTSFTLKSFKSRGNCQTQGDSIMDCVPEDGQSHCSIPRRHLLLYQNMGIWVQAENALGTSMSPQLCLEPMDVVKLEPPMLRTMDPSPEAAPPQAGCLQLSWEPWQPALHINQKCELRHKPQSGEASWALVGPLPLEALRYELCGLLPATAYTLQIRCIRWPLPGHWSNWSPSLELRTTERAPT
Description: (§1) Duplicate biosensor analysis of the antibodies c1.2 and 5D11 in IgG4 format were performed using a Biacore 2000 with a doubling dilution of the antibodies (312 nM to 2.4 nM in 0.1 mg/ml BSA) at a flow rate of 30 ul/min. Binding (100 μl) was monitored to respective flow cells containing control immobilized blank, immobilized cyno-G-CSFR-Fc, immobilized hG-CSFR-Fc and immobilized hG-CSFR. Receptor proteins (20 ug per ml in 20 mM Sodium Acetate pH 4.5) were previously immobilized to a CM5 chip using a NHS/EDC coupling kit as per the manufacturer's instructions (Biacore GE, Sweden). Target immobilization values were set at 700, 700 and 500 resonance units for cyno-G-CSFR-Fc, hG-CSFR-Fc and hG-CSFR, respectively. Chip immobilization was quenched with 50 mM ethanolamine pH 8.0. Dissociation of surface binding was monitored for 1000 seconds prior to desorption of the remaining complex using 50 mM Phosphoric acid. Reference binding was then subtracted from the control channel and kinetics generated using biaevaluation software on the Biacore 2000.

[3] = molecular target: T3, hG-CSFR-Fc: polypeptide of SEQ ID NO: 1 in which the C-terminal polyhistidine tag is replaced with an Fc … (Homo sapiens, UniProt Q99062 25-335); experiment: as above
T3 construct: the Fc is not specified; also called human G-CSFR-Fc; hG-CSFR-Fc fusion
T3 chain: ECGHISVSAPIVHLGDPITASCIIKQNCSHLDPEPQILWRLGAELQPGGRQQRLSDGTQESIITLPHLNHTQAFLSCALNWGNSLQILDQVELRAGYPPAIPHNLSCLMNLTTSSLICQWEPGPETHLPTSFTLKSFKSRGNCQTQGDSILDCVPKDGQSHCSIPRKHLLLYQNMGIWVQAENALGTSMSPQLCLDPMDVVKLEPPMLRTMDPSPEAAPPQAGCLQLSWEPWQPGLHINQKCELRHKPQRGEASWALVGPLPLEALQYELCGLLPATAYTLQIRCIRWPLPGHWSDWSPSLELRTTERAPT
Description: as §1

[4] = molecular target: T4, soluble hG-CSFR: amino acids 25-335 of Homo sapiens G-CSFR with mutations C78A, C163S and C228S and a … (Homo sapiens, UniProt Q99062 25-335); experiment: as above
T4 chain: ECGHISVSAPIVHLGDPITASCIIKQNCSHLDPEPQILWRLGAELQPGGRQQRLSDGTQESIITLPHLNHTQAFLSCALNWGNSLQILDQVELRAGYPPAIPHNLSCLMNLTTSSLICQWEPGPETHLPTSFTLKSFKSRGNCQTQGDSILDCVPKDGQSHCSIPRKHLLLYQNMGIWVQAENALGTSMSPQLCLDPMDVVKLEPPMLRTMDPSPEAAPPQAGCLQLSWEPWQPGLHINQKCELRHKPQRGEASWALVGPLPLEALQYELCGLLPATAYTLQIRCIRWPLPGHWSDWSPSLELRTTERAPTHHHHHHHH
Description: as §1

[5] = molecular target: T1, human G-CSFR expressed on cells; experiment: cell-based or functional assay; remark: listed apart in the source
[6] = molecular target: T4, soluble hG-CSFR: amino acids 25-335 of …; experiment: SPR (Biacore), mAb captured by anti-human IgG, soluble hG-CSFR injected
Description: Soluble hG-CSFR was injected for 5 minutes and dissociation was monitored for 30 minutes. Responses from a reference flow cell (in which mAb was not captured, but otherwise treated identically), were subtracted. The responses from a blank injection were then subtracted from the resultant sensorgrams.
The final corrected responses were fitted using non-linear regression to a model describing 1:1 kinetics, including a term for mass transport limitation. The Rmax value was fitted locally, to account for slight deviations in the level of mAb captured. Association rate (ka), dissociation rate (kd) and equilibrium dissociation constant (KD) were determined.

[7] = molecular target: T2, cynoG-CSFR-Fc: corresponding segment of …; experiment: SPR (Biacore 2000), receptor immobilised on CM5 chip, Fab in solution
Description: (§2) Duplicate biosensor analysis of the Fab were performed using a Biacore 2000 (GE, Sweden) with a doubling dilution of Fab antibodies (100 nM to 0.39 nM in 0.1 mg/ml BSA) at a flow rate of 30 μl/min. Binding (100 μl) was monitored to respective flow cells containing control immobilised blank, immobilized cyno G-CSFR-Fc, immobilized human G-CSFR-Fc and immobilized human G-CSFR. Receptor proteins (20 μg per ml in 20 mM Sodium Acetate pH 4.5) were previously immobilized to a CM5 chip using a NHS/EDC coupling kit as per the manufacturer's instructions (Biacore GE, Sweden). Target immobilization values were set at 700, 700 and 500 resonance units for cyno G-CSFR-Fc, hG-CSFR-Fc and hG-CSFR, respectively. Chip immobilisation was quenched with 50 mM ethanolamine pH 8.0. Dissociation of surface binding was monitored for 1000 seconds prior to desorption of the remaining complex using 50 mM Phosphoric acid. Reference binding was then subtracted from the control channel and kinetics generated using biaevaluation software on the Biacore 2000.

[8] = molecular target: T3, hG-CSFR-Fc: polypeptide of SEQ ID NO: 1 …; experiment: as above
Description: as §2

[9] = molecular target: T4, soluble hG-CSFR: amino acids 25-335 of …; experiment: as above
Description: as §2

[10] = molecular target: T1, human G-CSFR expressed on cells; experiment: binding to BaF3 cells expressing hG-CSFR; method not described; hG-CSFR on the cell surface of BaF3 cells
[11] = molecular target: T5, wild type hG-CSFR (soluble, corresponding extracellular domains of the wild type receptor) (Homo sapiens, UniProt Q99062 25-335); experiment: SPR (Biacore), mAb captured by anti-Fc, soluble wild type receptor injected
T5 construct: also called wt hG-CSFR
T5 sequence: T3 chain with A78C, S163C, S228C

B1: C1.2 IgG4 antibody (antibody, V domains shown)
VH: EVQLLESGGGLVQPGGSLRLSCAASGFTFSLYWMGWVRQAPGKGLEWVSSISSSGGVTPYADSVKGRFTISRDNSKNTLYLQMNSLRAEDTAVYYCAMLGELGWFDPWGQGTLVTVSS
VL: DIQMTQSPSALSASVGDRVTITCRASQGISSYLNWYQQKPGKAPKLLIYYASNLQNGIPSRFSGSGSGTDFTLTISSLQPEDFATYHCQQSYSTPLTFGGGTNVEIR
notes: human IgG4 format; also called C1.2 Ab
IC50, inhibition of CFU-G formation by CD34+ bone marrow cells in the presence of G-CSF [1]: 0.016 nM
IC50, inhibition of G-CSF-mediated proliferation of BaF3 cells expressing hG-CSFR [1]: 0.5 nM
Kd [2]: 0.054 nM
Kd [3]: 0.077 nM
Kd [4]: 0.027 nM

B2: C1.2G-1000 (antibody, human IgG4, V domains shown)
VH: B1 VH with M98K, W104Q, F105M, D106M, P107Y
VL: DIQMTQSPSSLSASVGDRVTITCRASQGISSYLNWYQQKPGKAPKLLIYYASNLQNGVPSRFSGSGSGTDFTLTISSLQPEDFATYYCQQSWMYAHMFGGGTKVEIK
notes: also called antibody 1000
IC50 (nM), inhibition of G-CSF-mediated proliferation of BaF3 cells [5]: 0.34 nM
Kd [6]: 0.182 nM

B3: C1.2G-969 (antibody, human IgG4, V domains shown)
VH: B1 VH with M98K, W104Q, F105Y, D106Q, P107F
VL: B2 VL with W92F, M93Q, H96Q, M97H
notes: also called antibody 969
IC50 (nM), inhibition of G-CSF-mediated proliferation of BaF3 cells [5]: 0.41 nM
Kd [6]: 0.181 nM

B4: C1.2 Fab (Fab, V domains shown)
VH: B1 VH
VL: B1 VL
notes: human Fab (papain digest of the antibody or E. coli expression); also called Fab C1.2
Kd [7]: 0.39 nM
Kd [8]: 0.33 nM
Kd [9]: 0.37 nM

B5: C1.2G (germlined C1.2), human IgG4 (antibody, V domains shown)
VH: B1 VH with M98K
VL: B1 VL with A10S, I58V, H87Y, N103K, R107K
notes: Human IgG4/kappa; also called C1.2 germline mAb; C1.2G (human IgG4)
IC50 (nM), inhibition of G-CSF-mediated proliferation of BaF3 cells [5]: 0.32 nM
Kd [10]: 0.257 nM
Kd [11]: 1.4 nM
IC50, inhibition of G-CSF-mediated proliferation of BaF3 cells expressing hG-CSFR (3H-thymidine incorporation) [1]: 0.8 mg/L
